The source of these data is the Human Domainome abundance scans (Beltran et al. 2025).

± gives the uncertainty stated by the source.

Sequences and labels used below:
B1: Tyrosine-protein kinase BTK, residues 215 to 273; numbered along this chain, Q06187 (parent)
chain: ELKKVVALYDYMPMNANDLQLRKGDEYFILEESNLPWWRARDKNGQEGYIPSNYVTEAE

In this data set the parent is B1. In words: abundance fitness (aPCA) (normalised: wild type 0, dead -1); higher = more abundant; growth selection in yeast, the domain comes from the species named. The conditions noted are these: Homo sapiens.
In the case of Q46F, the abundance fitness was -0.028 ± 0.06.
For Q46H the value was 0.04 ± 0.069; for Q46I, 0.047 ± 0.061; for Q46V, 0.044 ± 0.037.
Q46D: the abundance fitness is -0.077 ± 0.079.
For Q46R the value was -0.016 ± 0.035; for Q46Y, -0.127 ± 0.087.
With Q46L, the abundance fitness was -0.014 ± 0.031.
For Q46T the value was -0.048 ± 0.052.
Next, Q46C: 0.029 ± 0.055.
On to Q46A, for which the abundance fitness amounted to 0.014 ± 0.051.
On to Q46N, for which the abundance fitness came to 0.007 ± 0.075.
Next, Q46M: -0.053 ± 0.044.
For Q46W the value was -0.161 ± 0.045; for Q46P, -0.616 ± 0.073; for Q46E, -0.005 ± 0.073.
Q46G: the abundance fitness was -0.036 ± 0.045.
For Q46S the value was -0.065 ± 0.043; for E47P, -0.473 ± 0.056; for E47D, -0.011 ± 0.08.
For E47Q the value was -0.113 ± 0.059; for E47W, -0.104 ± 0.044; for E47T, -0.061 ± 0.042.
As for E47G, the abundance fitness is -0.451 ± 0.05.
For E47N the value was -0.115 ± 0.067; for E47H, -0.219 ± 0.07; for E47K, -0.107 ± 0.061.
For E47Y the value was -0.268 ± 0.057.
In the case of E47F, the abundance fitness was -0.235 ± 0.055.
For E47I the value was -0.142 ± 0.072; for E47R, -0.244 ± 0.036; for E47A, -0.086 ± 0.051.
Next, E47V: -0.05 ± 0.041.
As to E47L, the abundance fitness was -0.163 ± 0.035.
As to E47M, the abundance fitness is -0.156 ± 0.05.
Take V55Y: the abundance fitness was -0.836 ± 0.15.
For V55H the value was -0.852 ± 0.11; for V55F, -0.318 ± 0.061; for V55Q, -0.945 ± 0.16.
For V55E the value was -0.617 ± 0.07.
Regarding V55N, the abundance fitness is -0.808 ± 0.21.
As to V55T, the abundance fitness is -0.12 ± 0.06.
Next, V55M: -0.284 ± 0.079; V55C: -0.083 ± 0.048; V55G: -0.827 ± 0.056.
As for V55R, the abundance fitness was -0.905 ± 0.063.
For V55L the value was -0.292 ± 0.042; for V55A, -0.32 ± 0.05; for V55D, -0.891 ± 0.11.
In the case of V55K, the abundance fitness was -0.833 ± 0.12.
V55W: the abundance fitness is -0.784 ± 0.069.
For V55S the value was -0.695 ± 0.05; for Y49R, 0.04 ± 0.036; for Y49Q, 0.064 ± 0.063.
Y49P: the abundance fitness was -0.374 ± 0.054.
Next, Y49A: -0.037 ± 0.049; Y49L: 0.003 ± 0.033.
In the case of Y49D, the abundance fitness is -0.032 ± 0.065.
Next, Y49S: -0.046 ± 0.042.
As for Y49C, the abundance fitness is -0.024 ± 0.053.
Consider Y49K, for which the abundance fitness was -0.056 ± 0.063.
Consider Y49H, for which the abundance fitness is -0.074 ± 0.074.
For Y49T the value was -0.019 ± 0.05; for Y49M, 0.023 ± 0.047.
For Y49F the value was -0.033 ± 0.057; for Y49I, 0.001 ± 0.061; for Y49W, -0.026 ± 0.047.
For Y49E the value was -0.088 ± 0.057; for Y49V, -0.018 ± 0.038; for A58D, -0.092 ± 0.06.
With A58C, the abundance fitness was -0.058 ± 0.06.
N44H: the abundance fitness is -0.063 ± 0.072.
For N44A the value was -0.041 ± 0.055.
As to N44W, the abundance fitness was -0.056 ± 0.065.
Regarding N44M, the abundance fitness is -0.061 ± 0.095.
For the variant N44I, the abundance fitness came to 0.036 ± 0.099.
As to N44G, the abundance fitness was 0.017 ± 0.046.
For N44V the value was -0.054 ± 0.049; for N44L, -0.023 ± 0.042; for N44T, 0.029 ± 0.051.
For N44Q the value was -0.016 ± 0.051.
For N44K the value was 0.07 ± 0.082; for N44S, -0.05 ± 0.049.
On to N44D, for which the abundance fitness was -0.01 ± 0.066.
Next, N44E: -0.009 ± 0.061.
For N44R the value was -0.067 ± 0.043; for N44F, -0.026 ± 0.051.
Turning to N44C, the abundance fitness was -0.019 ± 0.076.
Take G45K: the abundance fitness is -0.125 ± 0.053.
For G45A the value was -0.073 ± 0.04; for G45W, -0.224 ± 0.036; for G45C, -0.162 ± 0.064.
For G45V the value was -0.641 ± 0.046.
Take G45E: the abundance fitness was -0.156 ± 0.045.
For G45S the value was -0.125 ± 0.04; for G45R, -0.16 ± 0.032.
Take G45H: the abundance fitness was -0.118 ± 0.12.
In the case of G45N, the abundance fitness was 0.008 ± 0.093.
Next, G45F: -0.173 ± 0.073; G45L: -0.08 ± 0.038; G45Q: -0.144 ± 0.05.
For G45P the value was -1.05 ± 0.15.
Take G45I: the abundance fitness is -0.809 ± 0.15.
Next, G45Y: -0.062 ± 0.072; G45D: -0.057 ± 0.065; G45T: -0.425 ± 0.062.
For P51V the value was -0.379 ± 0.038; for P51D, -0.196 ± 0.13; for P51W, -0.164 ± 0.045.
Next, P51N: -0.102 ± 0.084; P51K: -0.106 ± 0.05; P51E: -0.373 ± 0.047.
Turning to P51R, the abundance fitness is -0.069 ± 0.033.
Regarding P51Q, the abundance fitness is -0.128 ± 0.055.
For P51G the value was -0.286 ± 0.034; for P51M, -0.123 ± 0.055.
For the variant P51Y, the abundance fitness was -0.04 ± 0.14.
Take P51H: the abundance fitness was -0.04 ± 0.097.
Next, P51F: -0.054 ± 0.077; P51L: -0.056 ± 0.041; P51I: -0.581 ± 0.12.
P51A: the abundance fitness was -0.216 ± 0.049.
Next, P51S: -0.186 ± 0.043.
As to P51T, the abundance fitness was -0.528 ± 0.067.
For P51C the value was -0.126 ± 0.059; for N53I, -0.238 ± 0.091; for N53T, -0.054 ± 0.052.
For the variant N53Q, the abundance fitness is -0.041 ± 0.067.
For N53M the value was -0.079 ± 0.048; for N53Y, -0.202 ± 0.071.
With N53A, the abundance fitness was -0.005 ± 0.044.
Next, N53V: -0.004 ± 0.038; N53S: -0.006 ± 0.04; N53K: -0.025 ± 0.052.
Regarding N53R, the abundance fitness is -0.03 ± 0.04.
Next, N53L: -0.099 ± 0.037.
Next, N53F: -0.137 ± 0.066.
As for N53D, the abundance fitness is -0.043 ± 0.065.
Next, N53W: -0.137 ± 0.054; N53C: -0.164 ± 0.077; N53E: -0.016 ± 0.041.
For N53H the value was -0.123 ± 0.11.
As to W38V, the abundance fitness amounted to 0.022 ± 0.035.
For W38S, the abundance fitness is 0.042 ± 0.032.
For W38M the value was 0.017 ± 0.037; for W38T, -0.009 ± 0.037.
For W38P the value was -0.038 ± 0.043.
On to W38Y, for which the abundance fitness came to 0.044 ± 0.063.
As for W38Q, the abundance fitness is -0.019 ± 0.05.
As for W38N, the abundance fitness is -0.098 ± 0.056.
For K43I the value was 0.049 ± 0.066.
As for K43N, the abundance fitness is -0.018 ± 0.085.
Next, K43S: -0.016 ± 0.043.
For K43E the value was -0.005 ± 0.047; for K43H, -0.026 ± 0.086.
For K43F the value was -0.11 ± 0.072; for K43D, -0.094 ± 0.057.
Regarding K43L, the abundance fitness is -0.029 ± 0.045.
For K43C the value was -0.033 ± 0.056; for K43Q, 0.009 ± 0.057.
For K43P, the abundance fitness was -0.098 ± 0.061.
K43M: the abundance fitness came out at 0.021 ± 0.056.
For K43R the value was -0.033 ± 0.033; for K43G, 0.004 ± 0.029; for K43T, -0.016 ± 0.049.
For K43V the value was -0.001 ± 0.037; for K43A, 0.031 ± 0.038.
